Measured values taken from US9164103B2, “Monitoring and inhibiting human immunodeficiency virus infection by modulating HMGB1 dependent triggering of HIV-1 replication and persistence” (priority 2008, dated 2015).

How the values were obtained:
R5-HIV-1Ba-L = assay: HIV-1 replication in infected iDCs (p24 ELISA in culture supernatant); assay type: cell-based; conditions: 3 days, 1 μg/ml
Protocol: FIGS. 6 (a), (b) and (c). Exogenous rh-HMGB1 triggers HIV-1 and HIV-2 replication in iDC. (a) HIV-1-infected iDC were cultured alone or in the presence of aNK cells for 3 days. Rh-HMGB1 (1 μg/ml) was added in some cultures. HIV replication was measured by p24 quantification in culture supernatant (b) HIV1-infected iDC were cultured alone or in the presence of aNK cells for 3 days. Blocking anti-HMGB1 antibodies (10 μg/ml) or glycyrrhizin (10 μg/ml) were added at culture initiation. HIV replication was measured by p24 quantification in culture supernatant. The mean±sd of three independent experiments is shown. Statistical comparisons were made with the non parametric Mann-Whitney test. * p<0.05; (c) HIV-2-infected iDC were cultured alone or in the presence of aNK cells for 3 days. Rh-HMGB1 (1 μg/ml) was added in some cultures. HIV replication was measured by p24 quantification in culture supernatant.
Exogenous HMGB1 was recently reported to increase HIV-1 replication in infected monocytic cell lines38, and to induce in vitro the reactivation of HIV-1 in PBMCs from HIV-1-infected patients under antiretroviral therapy39. Therefore, the question of the role of HMGB1 in the NK-dependent triggering of HIV replication in DCs was addressed. […] To investigate the influence of HMGB1 in the triggering of HIV-1 replication in infected-iDC-aNK cocultures, HMGB1-specific neutralizing antibodies or glycyrrhizin were added to these cocultures and p24 production was measured in the supernatant. […] They also indicate that aNK cell-dependent stimulation of HIV-1 replication in iDCs is mediated by HMGB1.
Virus stock preparation was prepared by amplification of R5-HIV-1Ba-L on MDM from healthy donors. Viral stock was then clarified by centrifugation prior to determination of HIV1 p24 concentration. iDCs were plated in 96-well culture plates at 200,000 cells/well and incubated for 3 hours at 37° C. in a 5% CO2 atmosphere with R5-HIV-1BAL at various concentrations (0.001 to 10 ng p24/ml). Cells were harvested, washed four times with media containing 10% FCS and, when indicated, rNK or aNK cells were added at a NK:DC ratio of 1:5, unless otherwise indicated. NK-DC cocultures lasted 24 h before analysis of the maturation stage of DCs and/or quantification of viral production. In some experiments (FIG. 6), HIV-1 infected iDCs were incubated alone or with aNK cells for 3 days, in the presence of rh-HMGB1 (1 μg/ml) (R&DSystems), and in some cultures in the presence of rabbit antiHMGB1 Abs (10 μg/ml) (Abcam, Cambridge, UK) or Glycyrrhizin (10 μg/ml).
The concentration of HIV-1 in the supernatant of infected cell cultures was determined by measuring the amount of p24 protein by ELISA (Ingen, Belgium). DNA from cells was extracted using the GIAamp DNA Blood Mini Kit (Qiagen, Basel, Switzerland) and quantified HIV-1 proviral load by RT-PCR as described previously54. The frequency of HIV-1-infected cells was determined by flow cytometry to detect intracellular p24 molecule. Cells were surface stained with antibodies specific for CD40 (BD Biosciences, San Jose, Calif.) to target DC and intracellular stained with p24-specific antibodies (Coulter). Stained cells were fixed in 1% PFA, immediately acquired on a FACScalibur (Becton Dickinson) and analyzed with FlowJo software. In some experiments infected DCs were imaged, after immunofluorescence, by laser scanning confocal microscopy.

iDC = assay: Direct phenotypic maturation of iDCs (flow cytometry of maturation markers); assay type: cell-based, human
Source text: Co-staining with HLA-DR and CD86 specific antibodies allowed the identification of mature DCs (CD86^brightHLA-DR^bright). Data from a representative experiment out of three independent experiments are shown. […] The proportion of mDCs induced by LPS (DC0) (78.1% CD86^brightHLA-DR^bright) is shown as a positive control. […] These experiments have been performed on primary cells from a number of donors, and representative data from three of them are shown. When indicated, statistical analyses were made with the non parametric Mann-Whitney test. * p<0.05, ** p=0.02.
The maturation status of DCs was determined by flow cytometry with CD86 and HLA-DR—specific antibodies. […] (b) iDC (10^6 cells/ml) were cultured for 48 h with increasing concentrations (1-10 μg/ml) of rh-HMGB1. Cells were then stained with anti-CD86, -HLA-DR, -CD80, -CD83, DC-LAMP and -CD40 antibodies and analyzed by flow cytometry.

RAGE = assay: Surface expression of RAGE on DCs (flow cytometry); assay type: cell-based, human; conditions: uninfected iDCs, 1 μg/ml
Protocol: (d) Flow cytometry detection of surface expression of RAGE by iDCs, DC0, or iDCs incubated with rh-HMGB1 (1 μg/ml). iDCs were either non infected or infected with HIV-1 (1 ng/ml p24 for 3 h). (e) iDC, DC0, uninfected or HIV-1-infected iDC cocultured for 24 h with aNK cells, were incubated with rh-HMGB1 (1 μg/ml) and subsequently stained with anti-RAGE antibodies and analyzed by flow cytometry. NK cells were excluded from the analysis through the co-staining with CD3- and CD56-specific antibodies (CD3^−CD56^+).
The possible involvement of RAGE during NK-DC cross-talk was evaluated with the same approach, comparing RAGE expression on DCs cocultured with aNK cells and DC cultured alone.
Phenotypic analysis of DCs and characterization of their maturation stage was performed by flow cytometry. DCs were stained for 20 min at 4° C. with antibodies specific for CD80, CD83, CD86, HLA-DR, CD40, DC-LAMP or DC-SIGN (all antibodies from BD Biosciences, San Jose, Calif.) diluted in 100 μl of PBS/10% FCS/0.1% NaN3. In some experiments, antibody specific for HMGB1-receptor, RAGE (Abcam), was used to stain DCs. After two washings, cells were fixed in 1% PFA, immediately acquired on a FACScalibur (Becton Dickinson) and analyzed with Flow Jo software.

iDCs = assay: Cytokine and chemokine production by DCs (MAP/Luminex); assay type: cell-based, human; conditions: iDCs 48 h, 1 or 10 μg/ml
Protocol: FIG. 3 (a)-(e). aNK-dependent maturation of HIV-1-infected iDCs is mediated by HMGB1 and involves RAGE. (a) Left panel: iDCs were cultured for 24 h either alone or with aNK cells, in the presence of blocking anti-HMGB1 antibodies (10 μg/ml) or glycyrrhizin (10 μg/ml). The maturation status of DCs was determined by flow cytometry with CD86 and HLA-DR—specific antibodies. Right panel: same experiment, but performed with HIV-1 infected iDCs. Data represent mean±sd of at least three independent experiments, and statistical comparisons were made with the non parametric Mann-Whitney test. * p<0.05. (b) iDC (10^6 cells/ml) were cultured for 48 h with increasing concentrations (1-10 μg/ml) of rh-HMGB1. Cells were then stained with anti-CD86, -HLA-DR, -CD80, -CD83, DC-LAMP and -CD40 antibodies and analyzed by flow cytometry. (c) Influence of rh-HMGB1 on cytokine and chemokine production (determined by MAP) by DCs. iDCs (10^6 cells/ml) were incubated for 48 h in medium or in presence of rh-HMGB1 (1 or 10 μg/ml). As a positive control, iDCs were stimulated with LPS (DC0). […] (e) iDC, DC0, uninfected or HIV-1-infected iDC cocultured for 24 h with aNK cells, were incubated with rh-HMGB1 (1 μg/ml) and subsequently stained with anti-RAGE antibodies and analyzed by flow cytometry. […]

HIV-2 = HIV-2 replication in infected iDCs (p24 ELISA in culture supernatant); assay type: cell-based; conditions: HIV-2-infected iDC, day 3
Protocol: FIGS. 6 (a), (b) and (c). Exogenous rh-HMGB1 triggers HIV-1 and HIV-2 replication in iDC. (a) HIV-1-infected iDC were cultured alone or in the presence of aNK cells for 3 days. Rh-HMGB1 (1 μg/ml) was added in some cultures. HIV replication was measured by p24 quantification in culture supernatant (b) HIV1-infected iDC were cultured alone or in the presence of aNK cells for 3 days. Blocking anti-HMGB1 antibodies (10 μg/ml) or glycyrrhizin (10 μg/ml) were added at culture initiation. HIV replication was measured by p24 quantification in culture supernatant. The mean±sd of three independent experiments is shown. Statistical comparisons were made with the non parametric Mann-Whitney test. * p<0.05; (c) HIV-2-infected iDC were cultured alone or in the presence of aNK cells for 3 days. Rh-HMGB1 (1 μg/ml) was added in some cultures. HIV replication was measured by p24 quantification in culture supernatant. […]
2—NK-DC cocultures: cells were harvested, washed three times with RPMI containing 10% FCS and, when indicated, aNK cells were added at a NK:DC ratio of 1:5. […] NK-DC cocultures lasted 3 to 7 days before quantification of viral production in culture supernatants.
3—Quantification of HIV-2 viral production: the concentration of HIV-2 particles in the supernatants was determined with the p24 ELISA kit (Ingen, Belgium).

B1: rh-HMGB1: recombinant human HMGB1 protein (R&D Systems), added exogenously (protein, UniProt P09429 1-215, looked up)
High mobility group protein B1: MGKGDPKKPRGKMSSYAFFVQTCREEHKKKHPDASVNFSEFSKKCSERWKTMSAKEKGKFEDMAKADKARYEREMKTYIPPKGETKKKFKDPNAPKRPPSAFFLFCSEYRPKIKGEHPGLSIGDVAKKLGEMWNNTAADDKQPYEKKAAKLKEKYEKDIAAYRAKGKPDAAKKGVVKAEKSKKKKEEEEDEEDEEDEEEEEDEEDEDEEEDDDDE
R5-HIV-1Ba-L; HIV-1-infected iDC cocultured with aNK cells
  p24 production: significant stimulatory effect
R5-HIV-1Ba-L; HIV-1-infected iDC cultured alone
  production of p24 in culture supernatants: enhancing dramatically the production of p24
iDC; 10 μg/ml, 48 h of culture, medium alone 65%
  percentage of CD86bright HLA-DRbright DCs: 71%
iDC; 1 to 10 μg/ml, 24 h, similar at 48 h
  phenotypic maturation of iDC: did not induce phenotypic maturation of iDC
iDC; rh-HMGB1-treated DCs compared with mDC (DC0)
  expression of CD80, CD83 and DC-lamp: not fully mature
RAGE
  RAGE expression on iDCs: down-regulation of RAGE
iDCs
  release of the chemokines MCP1, MIP-1α, MIP-1β and IL-8: increased release
HIV-2
  HIV-2 viral replication (p24): slight increase in viral replication
